Experimental data taken from the DeepSol protein solubility set.

test: soluble on expression in E. coli; label from the status in PepcDB or PDB records

Soluble on expression in E. coli, not soluble:
MGSDKIHHHHHHMSIVDKFGEKVGEIAENDPVKARKLLLAGYRLQEKRLALFPDRKLPMSGQYVAKIVMNNIIQALAKPENAAMVSIFVPGELLTAAGLTPYSVEALSCFIAGTKCEQAFLRQTEKEGFPETMCSYHRVFLGAALNGIVPKPKCMVYTNLACDGNMMTFPYLKERYEIPSFYIDVPYEKNYDSVMYVAKQLRELKSFLQDVTGREITEESVKKAVDKSKIASNNYYRQLHLRKGHDIASTLTNELYALFMCHLLAGTDESVRYTQLLRDDVRRAPAGDGFHVLWMHTMPFLQDAVKDVFNYSDTIHISASDFIADGFRSMESDDPYEALAEKMVYCIYNGSVNQRIDEAKELADTVGADGAVLFAHWGCKNTIGASSLIKRSLEREGLPTMVLDGDGCNPANASDGQISTRLQAFVEMLTEQERN
MGSDKIHHHHHHMRQESLFNPDKSSSSPLAYRVRPVTLADFKGQEHLLGPGKLLRQLIAEDQLPSLIFWGPPGVGKTTLAEIIAQQTQSHFITFSAVTSGIKEIRQIMDEAEANRDFGEKTIVFIDEIHRFNKAQQDAFLPYVERGSITLIGATTENPSFEINAALLSRCKVLVLKALTPDALEAVLQGALQNPKGFPDLEITMQPDTLRLIAEFANGDARMALNTLEMAVLNGDRDGKHVTITTAGLSQLINTKSLRYDKHGEEHYNIISALHKSMRNSDVDAAIYWLMRMLAGGEDPLYIARRLIRFASEDIGLADRQALPLTVAVFQACQLIGMPECDVNLTEAVTYLALAPKSNALYAAKSAAQADIKATGNLPVPLQIRNAPTKLMKDLGYGSDYQYAHDTAAKLTTMTTMPPELKQHRYYEPTSQGQEKAWQQRLAAIRSGTSNIRKPNRQMMRHKDCNLMRIH
MHILDIWHRRNSRSYIAHLRSLGIRIGDGCIFRDPLTTRIDVSRPALVSIGSNVDMNTYFQILTHDWASFVFRNKYHDFVNSSGRVEIGSNIYIGTNVIVLRGVTIGDNCVIGAGSVVTHDIPANSVAVGAPCRVVCSLEHHHHHH
MGSDKIHHHHHHVSSDQVAVAGNAERLFNGAWYNLFEYGTTYANIGYRALQCQDDMMASDVVSRPKYGFNSSYQFNDVAIPSDGRTSFAWYLIYKTIDNCNTAISIKGDSEELRQAQGQALALRAFCYLHLVQHYQFTYLKDKDAPCVPIYTEPTTSGTKPKGKSTVAQVYQQIFDDLNLAQDYLTNYVRKGDGQKFKPNTDVVNGLMARAYLLTGQWGEAAKAAEAARKGYSLMTTTAEYEGFNNISNKEWIWGSPQTLSQSDASYNFYYLDATYVGAYSSFMADPHLMDTFVKGDIRLPLFQWMREGYLGYKKFHMRSDDTADLVLMRSAEMYLIEAEAKVRDGVALDQAVAPLNTLRTARGVGNYDVTGKTKEQVIDEILMERRRELWGEGFGITDVLRNQKAVERMALSEDMQKTEVDCWQEGGSFAKRNPLGHWFLNFPDGKAFSANSSYYLYAIPEKEINANPNL
MYVMTQSGWLEVICGCMFSGKSEELIRRVRLAQFAKQEVKVFKPTIDNRYSEDAVVSHNGNSVIAIPVATPAEMFRYISAATDVVAIDEVQFFSDDIIDVVQTLADGGCRVITAGLDQDFRGEPFGPVPALMAIAESVTKLQAVCTVCGSPASRTQRLINGAPASYDDPVILVGASEAYEPRCRHHHEVPGKPKKRYNRPLAGHTGE
MSLRQIRTVIQYQTVRYDILPLSPVSRNRLAQVKRKILVLDLDETLIHSHHDGVLRPTVRPGTPPDFILKVVIDKHPVRFFVHKRPHVDFFLEVVSQWYELVVFTASMEIYGSAVADKLDNSRSILKRRYYRQHCTLELGSYIKDLSVVHSDLSSIVILDNSPGAYRSHPDNAIPIKSWFSDPSDTALLNLLPMLDALRFTADVRSVLSRNLHQHRLWEGHHHHHH
MKQLNGGNVYRPTGKEKNLQAILNIHRHVIQNISPVTITAGKTLDIKIDNQSHILLITKGAIKVCRRIDSIVMGCGVSPMILGLVDAYADLYQLEENSDVFFIAETTCEYYPVPVKDFVEIADEKHLWRDISNILMYRIAFMTNRDRNLIGQDAYSQIKALLLELWSYPESSRFEINAQNFIQQRTGLSRSRIMQVLSELKAGDYIKILHGRLLELRNLPVSF
MIDKHVACERPLTVYLNWRPIVTLMTLGAKPESLALGYLKNQGFISDVSQLESVIVDWGVNSAAVLTREQTADIDKKLSEKTVTSGCGQGTVYGSFMQDLEGIQLPRPSLKQSTLYSLLKNINEYNDTYKNAGAVHGCGVCEADQILAFVEDVGRHNAVDTLAGDMWLAQDRGDNKIFYTTGRLTSEMVIKVAKMGIPVLLSRSGVTQMGLELAQNLGITIIARAKGRHFLVYHGSENLEFDVNTSPSKLEHHHHHH
MKANTIIAGLLSSTLLATAAYAQTPAPADSTRTMSKSTSASESQHMGQWRASKLIGVNVYNQGNEKLGDISEMLIDSEGRIQGVVIGVGGFLGVGQRDVAVTFDKLQWVNTPVSSNTAMNSQTTPAGSGTSTASPAGTTTGAATSTTAANNADRWYPDHAVLNATKDQLKSMPEFKYSK
MSNEQPNNPLHGLSLEKIVTRLVEHFGWNGLYERVRVNCFKKDPSIKSSLKFLRKTQWARDKVEALYIETFCLEHHHHHH
MAHHHHHHMPEPLEETFSRVLSAKVARAKRVFGGDINETYRLEMEKDDVVYFLKLQRGTTADFYAAESLGLSLLSDVARTPRVVQTGEVNGDAYLIMTWIQSFPSAMRGGVRRNMAELGRMVAIVHRQTSPNGQFGSSVAVPLAGCKTSAGWSKDWATYYIESLLAPQVALARRKGYWSDRREAMFVAFSKRFCAFYASKKNVQPSLLHGDLWGGNVMYGESGEPYLIDPSSYYGHREVDIAMTRLFGGFGSEFYTAYEGEMPLEAGHASRVPWYQLLPLLCHLNLFGEAYGSSVDSAMAHVL
QPPAPRMIADGYQLLSELGALDERKGLTQIGHQLARFPTDPRIARMIMAAKQENCLSEVLIIAAALSLQDPRDRPFEHQQAADQAHQPFRDDR
MEQKKKKNIGFNIIKDDPTDGHRGFGAGALSLENVSPVIIDVEAGEAFVDMGAMHARSAVERGIKFLPDRSAVPNGKPYWIVWVTIERREDGPYYAGVTACEMTIDREARRGYKLLPEHVNRLDKSLKRHIIVDHMDAKSKRVLADFLKGHDIGMWNRSSDELKKGLEGEL

Soluble on expression in E. coli, soluble:
MTNFRPCFLIPCYNHGKTIPAVVESLMSYGYPMIIVDDGSENETKRILEEVTQHNESITLITLAENQGKGGAVIAGIEKAYQQSYSHAIQIDADGQHDLEALPKLIAESQEHPTALISGQPIYDESVPKSRLYGRYATHIWVWIETLSFTIKDSMCGFRSYPIGPTINVLERAVLGRRMDFDTEIMVRMYWNETDIRFINTRVIYPEDGISHFDALWDNVKISWMHTKLFFGMLPRIPSLLKRKPVQEDHWSSHAERGTILGIQFLLWIYSTFGRKVFSLLLKPVMAYYYLRGGSVKDASDDFIQQVNAYARIKGIQLPEKLTTYRHLVSFGETMLDKLAAWRGDFSDKNLTVHGIEHYQTLAQREKGIVLLGSHLGNLELCRALSRRHTHLKINALVFTEHAERFNTVMKTVNPQSEVNVIQVSKIGPDTAILLQQKIDDGEWIVIVGDRTSVTKENRVIWADFLGKPAPFPQGPFMLASILKQPVYLMFGLRDDTQKDPLFDVYLEPFSEQIILPRGKREEALQEVVQNYAQRLEHFTLKAPSQWYNFFNFWQLTGKKDDNLEHHHHHH
SADCILVNSQFTAAVFKETFKSLSHIDPDVLYPSLNVTSFDSVVPEKLDDLVPKGKKFLLLSINRYERKKNLTLALEALVQLRGRLTSQDWERVHLIVAGGYDERVLENVEHYQELKKMVQQSDLGQYVTFLRSFSDKQKISLLHSCTCVLYTPSNEHFGIVPLEAMYMQCPVIAVNSGGPLESIDHSVTGFLCEPDPVHFSEAIEKFIREPSLKATMGLAGRARVKEKFSPEAFTEQLYRYVTKLLV
MASKIEQPRWASKDSAAGAASTPDEKIVLEFMDALTSNDAAKLIEYFAEDTMYQNMPLPPAYGRDAVEQTLAGLFTVMSIDAVETFHIGSSNGLVYTERVDVLRALPTGKSYNLSILGVFQLTEGKITGWRDYFDLREFEEAVDLPLRG
MSLHSVAEREKRNAVHDSLTGLPNRKYCFELIDDRIQSGDPFSVILFDVVNFKQVNDAMGHFCGDQLLIQIGQRLQDKLKGSDKIFRVGGDEFVILTSSACEKTGTELIESLDCALSARFHLDEFQVSSRVVFGISTYPYDAISNDLLIKHADIAMYHAKRNGNLFAFYHDDMNVGAKYQLEISSRIQCALEKEEFQLYYQPLIDANTNLAVGFEAVIRWHDENGKTISPNDFIPIAERSNQVHNITMWVLGQVEKDLKTFIEKGIKLPVHVNLSAKDLSSNLLFHRLEKLLENNPQFADLISLEITETMAIDRVVELNPLIHQIKGLGIKISLDDFGTGYSSLSLLRDLPVDQIKIDRSFLCTANRTEGSRSIVENTIALAHGLGYSVVAEGVQDMDTLYFLRSRGCDIIQGYLFCPALPLNEVINWVNEHDDKQSHTRRAEGHHHHHH
MSLLVLGIESSCDETGVALYDTERGLRAHCLHTQMAMHAEYGGVVPELASRDHIRRLVPLTEGCLAQAGASYGDIDAVAFTQGPGLGGALLAGSSYANALALALDKPVIPVHHLEGHLLSPLLAEEKPDFPFVALLVSGGHTQIMAVRGIGDYALLGESVDDAAGEAFDKTAKLLGLLYPGGAKLSELAESGRFEAFVFPRPMIHSDDLQMSFSGLKTAVLTAVEKVRAENGADDIPEQTRNDICRAFQDAVVDVLAAKVKKALLQTGFRTVVVAGGVGANRKLRETFGNMTVQIPTPKGKPKHPSEKVSVFFPPTAYCTDNGAMIAFAGAMHLGKGREVGAFNVRPRWPLSEIVREGHHHHHH
GMWQFPLFETILIEQGQAKNISYHQQRYEKSLLKFYPKMKLQPFDLAKIIAKHTALFTHREGLIRCRIDYNHHDYVLQCFPYQQKVYRTFKPVFCDHIDYSLKFSDRTLLNNLLKQKEECDEIMIIRQGKVTDCSIGNLIFRQNNQWITPDKPLLEGTQRAKLLEQKKIIAREIFFEDLAQYEEIRLINAMNGL
MSLRVKYFGTDGIRGIFGETLTDELAFKVGKALGEIVGEGKVIVGKDTRVSGDSLEAAISAGLTSMGVDVLLCGILPTPAVALLTRITRSFGVVISASHNPPEYNGIKVLKGGYKIPDEMEAEIEKRLENGSFLTRSVVGRTKSFREGRDMYIGAVLEMFRDLDLTGEMVSLDLANGATTTTAREVFEFLGAKVEVFNDSQDGLLINQGCGATHPRFLAEEMKNGKVGFTFDGDGDRVIAVDEERNVVNGDRIIGILAVGLKEEGRLNSDTVVGTVMTNGGLEDFLKEKGIRLLRTKVGDKYVLEKMLESGANLGGERSGHIIILDRSTTGDGLITALELMRVLKRSGRKLSDFAKEIPDYPQITKNVRRTERMSLENENLRKIVEESTSRGYRVVIRPSGTEPVIRITVEGKDREEIEKIVEEISRVLESEGHHHHHH
MSLKYKLLVLDVDGTLLNDAKEISKRTLAALLKVQQMGVRIVLASGRPTYGLMPLAKSLELGNYGGYILSYNGCQIINAQNGEILFERRINPEMLPYLEKKARKNNFALFTYHDDTIITDTPENEHIQNEARLNNLKVIKEEEFSVAIDFAPCKCMLVSDDEEALVSLEGHWKRRLNGALDVFRSEPYFLEVVPCAIDKANTLGALLEELDVKREEVIAIGDGVCDVTMIQLAGLGVAMGHSQDSVKVCADYVTASNEEDGVALAVEKAIIAEVRAAEIPLDQLNAQARHALMGNLGIQYTYADEDRVEATMPVDHRTRQPFGILHGGATLALGETVAGLGSMILCQPDEIVVGMQVSGNHISSAHEGDTVRAVATIVHKGRSSHVWNVDVFTSTNKLVSSIRVVNSVMKKREGHHHHHH
